Laboratory results from FireProtDB (doi:10.1073/pnas.0804396105).
Values joined by “and” are separate entries in the source; they are usually repeats but may differ in a detail not shown here. Identical values can stand only once.

B1: Adenosine receptor A2a, P29274 (parent)
chain: MPIMGSSVYITVELAIAVLAILGNVLVCWAVWLNSNLQNVTNYFVVSLAAADIAVGVLAIPFAITISTGFCAACHGCLFIACFVLVLTQSSIFSLLAIAIDRYIAIRIPLRYNGLVTGTRAKGIIAICWVLSFAIGLTPMLGWNNCGQPKEGKNHSQGCGEGQVACLFEDVVPMNYMVYFNFFACVLVPLLLMLGVYLRIFLAARRQLKQMESQPLPGERARSTLQKEVHAAKSLAIIVGLFALCWLPLHIINCFTFFCPDCSHAPLWLMYLAIVLSHTNSVVNPFIYAYRIREFRQTFRKIIRSHVLRQQEPFKAAGTSARVLAAHGSDGEQVSLRLNGHPPGVWANGSAPHPERRPNGYALGLVSGGSAQESQGNTGLPDVELLSHELKGVCPEPPGLDDPLAQDGAGVS

Variants of: B1
Conditions: Homo sapiens; pH 7.4; Thermal; Activity; Tris 50 mM; NaCl 0.4 M; structure 4UHR; whole UniProt chain shown

Variant | Tm | change of melting temperature, mutant - wild type (higher = more stable)
MPIMGSSVYITVELAIAVLAILGNVLVCWAVWLNSNLQNVTNYFVVSLAAADIAVGVLAIPFAITISTGFCAACHGCLFIACFVLVLTQSSIFSLLAIAIDRYIAIRIPLRYNGLVTGTRAKGIIAICWVLSFAIGLTPMLGWNNCGQPKEGKNHSQGCGEGQVACLFEDVVPMNYMVYFNFFACVLVPLLLMLGVYLRIFLAARRQLKQMESQPLPGERARSTLQKEVHAAKSLAIIVGLFALCWLPLHIINCFTFFCADCSHAPAWLMYLAIVLSHTNSVVNPFIYAYRIREFRQTFRKIIRSHVLRQQEPFKAAGTSARVLAAHGSDGEQVSLRLNGHPPGVWANGSAPHPERRPNGYALGLVSGGSAQESQGNTGLPDVELLSHELKGVCPEPPGLDDPLAQDGAGVS [P260A L267A] | 31 °C and 30 °C | 
MPIMGSSVYITVELAIAVLAILGNVLVCWAVWLNSNLQNVTNYFVVSLAAADIAVGVLAIPFAITISTGFCAACHGCLFIACFVLVLTQSSIFSLLAIAIDRYIAIRIPLRYNGLVTGTRAKGIIAICWVLSFAIGLTPMLGWNNCGQPKEGKNHSQGCGEGQVACLFEDVVPMNYMVYFNFFACVLVPLLLMLGVYLRIFLAARRQLKQMESQPLPGERARSTLQKEVHAAKSLAIIVGLFALCWLPLHIINCFTFFCPDCSHAPLWLMYLAIVLSHANSVVAPFIYAYRIREFRQTFRKIIRSHVLRQQEPFKAAGTSARVLAAHGSDGEQVSLRLNGHPPGVWANGSAPHPERRPNGYALGLVSGGSAQESQGNTGLPDVELLSHELKGVCPEPPGLDDPLAQDGAGVS [T279A N284A] | 29 °C | 9 °C
MPIMGSSVYITVELAIAVLAILGNVLVCWAVWLNSNLQNVTNYFVVSLAAADIAVGVLAIPFAITISTGFCAACHGCLFIACFVLVLTQSSIFSLLAIAIDRYIAIRIPLRYNGLVTGTRAKGIIAICWVLSFAIGLTPMLGWNNCGQPKEGKNHSQGCGEGQVACLFEDVVPMNYMVYFNFFACVLVPLLLMLGVYLRIFLAARRQLKQMESQPLPGERARSTLQKEVHLAKSAAIIAGLFALCWLPLHIINCFTFFCPDCSHAPLWLMYLAIVLSHTNSVVNPFIYAYRIREFRQTFRKIIRSHVLRQQEPFKAAGTSARVLAAHGSDGEQVSLRLNGHPPGVWANGSAPHPERRPNGYALGLVSGGSAQESQGNTGLPDVELLSHELKGVCPEPPGLDDPLAQDGAGVS [A231L L235A V239A] | 38 °C | 7 °C
MPIMGSSVYITVELAIAVLAILGNVLVCWAVWLNSNLQNVTNYFVVSLAAADIAVGVLAIPFAITISTGFCAACHGCLFIACFVLVLTQSSIFSLLAIAIDRYIAIRIPLRYNGLVTGTRAKGIIAICWVLSFAIGLTPMLGWNNCGQPKEGKNHSQGCGEGQVACLFEDVVPMNYMVYFNFFACVLVPLLLMLGVYLRIFLAARRQLKAMESQPLPGARARSTLQKEVHAAKSLAIIVGLFALCWLPLHIINCFTFFCPDCSHAPLWLMYLAIVLSHTNSVVNPFIYAYRIREFRQTFRKIIRSHVLRQQEPFKAAGTSARVLAAHGSDGEQVSLRLNGHPPGVWANGSAPHPERRPNGYALGLVSGGSAQESQGNTGLPDVELLSHELKGVCPEPPGLDDPLAQDGAGVS [Q210A E219A] | 31 °C | 11 °C
MPIMGSSVYITVELAIAVLAILGNVLVCWAVWLNSNLQNVTNYFVVSLAAADIAVGVLAIPFAITISTGFCAACHGCLFIACFVLVLTQSSIFSLLAIAIDRYIAIRIPLRYNGLVTGTRAKGIIAICWVLSFAIGLTPMLGWNNCGQPKEGKNHSQGCGEGQVACLFEDVVPMNYMVYFNFFLCVLVPLLLMLGVYLRIFLLARRQLKQMESQPLPGERARSTLQKEVHAAKSLAIIVGLFALCWLPLHIINCFTFFCPDCSHAPLWLMYLAIVLSHTNSVVNPFIYAYRIREFRQTFRKIIRSHVLRQQEPFKAAGTSARVLAAHGSDGEQVSLRLNGHPPGVWANGSAPHPERRPNGYALGLVSGGSAQESQGNTGLPDVELLSHELKGVCPEPPGLDDPLAQDGAGVS [A184L A203L] | 30 °C | 10 °C
MPIMGSSVYITVELAIAVLAILGNVLVCWAVWLNSNLQNVTNYFVVSLAAADIAVGVLAIPFAITISTGFCAACHGCLFIACFVLVLTQSSIFSLLAIAIDRYIAIRIPLRYNGLVTGTRAKGIIAICWVLSFAIGLTPMLGWNNCGQPKEGKNHSQGCGEGQVACLFEDVVPMNYMVYFNFFACVLVPLLLMLGVYLRIFLAARRQLKQMESQPLPGERARAALAAEVHAAKSLAIIVGLFALCWLPLHIINCFTFFCPDCSHAPLWLMYLAIVLSHTNSVVNPFIYAYRIREFRQTFRKIIRSHVLRQQEPFKAAGTSARVLAAHGSDGEQVSLRLNGHPPGVWANGSAPHPERRPNGYALGLVSGGSAQESQGNTGLPDVELLSHELKGVCPEPPGLDDPLAQDGAGVS [S223A T224A Q226A K227A] | 24 °C | 4 °C
MPIMGSSVYITVELAIAVLAILGNVLVCWAVWLNSNLQNVTNYFVVSLAAADIAVGVLAIPFAITISTGFCAACHGCLFIACFVLVLTQSSIFSLLAIAIDRYIAIRIPLRYNGLVTGTRAKGIIAICWVLSFAIGLTPMLGWNNCGQPKEGKNHSQGCGEGQVACLFEDVVPMNYMVYFNFFACVLVPLLLMLGVYLRIFLLLRRQLKQMESQPLPGERARSTLQKEVHAAKSLAIIVGLFALCWLPLHIINCFTFFCPDCSHAPLWLMYLAIVLSHTNSVVNPFIYAYRIREFRQTFRKIIRSHVLRQQEPFKAAGTSARVLAAHGSDGEQVSLRLNGHPPGVWANGSAPHPERRPNGYALGLVSGGSAQESQGNTGLPDVELLSHELKGVCPEPPGLDDPLAQDGAGVS [A203L A204L] | 40 °C and 42 °C | 9 °C and 10 °C
MPIMGSSVYITVELAIAVLAILGNVLVCWAVWLNSNLQNVTNYFVVSLAAADILVGVLAIPFAITISTGFCAACHGCLFIACFVLVLAQSSIFSLLAIAIDRYIAIRIPLRYNGLVTGTRAKGIIAICWVLSFAIGLTPMLGWNNCGQPKEGKNHSQGCGEGQVACLFEDVVPMNYMVYFNFFACVLVPLLLMLGVYLRIFLALRRQLKQMESQPLPGERARSTLQKEVHAAKSLAIIAGLFALCWLPLHIINCFTFFCPDCSHAPLWLMYLAIVLSHTNSVVNPFIYAYRIREFRQTFRKIIRSHVLRQQEPFKAAGTSARVLAAHGSDGEQVSLRLNGHPPGVWANGSAPHPERRPNGYALGLVSGGSAQESQGNTGLPDVELLSHELKGVCPEPPGLDDPLAQDGAGVS [A54L T88A A204L V239A] |  | 10 °C and 15 °C
